For one protein, Km, kcat and kcat/Km results are on record in the PETadex activity labels (doi:10.1074/jbc.m303867200).

Details in all cases: pH 8; 37 °C
Substrate in one data set: p-NP-C12
Substrate in the next data set: p-NP-C2
Substrate in the next data set: p-NP-C3
Substrate in a further data set: p-NP-C4
Substrate in the next data set: p-NP-C6

B1: unnamed (protein)
chain: MNNIWWQTKGQGNVHLVLLHGWGLNAEVWRCIDEELSSHFTLHLVDLPGFGRSRGFGALSLADMAEAVLQQAPDKAIWLGWSLGGLVASQIALTHPERVQALVTVASSPCFSARDEWPGIKPDVLAGFQQQLSDDFQRTVERFLALQTMGTETARQDARALKKTVLALPMPEVDVLNGGLEILKTVDLRQPLQNVSMPFLRLYGYLDGLVPRKVVPMLDKLWPHSESYIFAKAAHAPFISHPAEFCHLLVALKQRV
Regarding B1, the Michaelis constant (Km) with p-NP-C12 was 600 µM; with p-NP-C2 it was 290 µM; in the data set with p-NP-C3, 350 µM; in the data set with p-NP-C4, 330 µM; in the data set with p-NP-C6, 250 µM. Besides, the kcat stood at 1.5 s⁻¹ with p-NP-C12; 18.5 s⁻¹ in the data set with p-NP-C2; 13.1 s⁻¹ in the data set with p-NP-C3; 6.1 s⁻¹ in the data set with p-NP-C4; 4 s⁻¹ in the data set with p-NP-C6. For the same protein, the kcat/Km in the data set with p-NP-C12 worked out at 2500 s⁻¹ M⁻¹; in the data set with p-NP-C2 it was 63800 s⁻¹ M⁻¹; with p-NP-C3, 37400 s⁻¹ M⁻¹; with p-NP-C4 it was 18500 s⁻¹ M⁻¹; in the data set with p-NP-C6, 16000 s⁻¹ M⁻¹.

One may read the Km as the concentration of substrate that gives half-maximal velocity. Usually kcat stands for the maximal rate divided by the concentration of active sites. As a reminder, the kcat/Km is the second-order rate constant that governs catalysis at low substrate concentration.
